Measured values as given in patent publication US20130071921A1 (Pfizer, published 2013).

Key:
[1] = molecular target: T1, Recombinant human Dkk-1 (R&D Systems cat no. 1096-DK/CF), 10xHis tag at the C terminal (human, UniProt O94907 32-266); experiment: cell-based or functional assay
T1 sequence: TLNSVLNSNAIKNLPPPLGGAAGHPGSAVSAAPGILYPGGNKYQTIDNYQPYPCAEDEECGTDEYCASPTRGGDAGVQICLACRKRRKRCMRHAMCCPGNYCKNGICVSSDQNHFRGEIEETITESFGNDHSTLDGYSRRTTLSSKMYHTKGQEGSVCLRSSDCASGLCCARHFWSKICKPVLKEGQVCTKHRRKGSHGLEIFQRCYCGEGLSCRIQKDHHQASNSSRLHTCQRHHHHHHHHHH

[2] = molecular target: T1, Recombinant human Dkk-1 (R&D Systems …); experiment: method not given
[3] = molecular target: T2, recombinant mouse Dkk-1 (R&D systems Cat No. 1765-DK/CF) (mouse, UniProt O54908 32-272); experiment: method not given
T2 construct: Bought
T2 sequence (looked up): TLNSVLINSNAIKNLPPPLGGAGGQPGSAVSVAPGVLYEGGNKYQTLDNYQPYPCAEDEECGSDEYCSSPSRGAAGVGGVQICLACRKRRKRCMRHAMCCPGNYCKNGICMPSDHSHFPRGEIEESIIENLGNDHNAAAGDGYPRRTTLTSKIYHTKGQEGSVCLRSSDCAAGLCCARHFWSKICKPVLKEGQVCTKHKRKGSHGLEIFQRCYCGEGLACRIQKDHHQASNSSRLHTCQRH

[4] = molecular target: T1, Recombinant human Dkk-1 (R&D Systems …); experiment: SPR BIAcore 25C, huMabJC18 IgG amine-coupled, human Dkk1 injected
Method: The affinity of huMabJC18 to human, mouse or rat Dkk1 was determined by using the BIAcore3000™ surface plasmon resonance (SPR) system (BIAcore Inc., Piscataway, N.J.), equipped with a CM5 sensor chip (BIAcore AB, Uppsala, Sweden). For the huMabJC18-human Dkk1 interaction analysis, reaction surfaces were generated by amine coupling of huMabJC18 to three flow cells (Fc2, Fc3 and Fc4). CM5 chips were activated with N-ethyl-N′-(3-dimethylaminopropyl)-carbodiinide hydrochloride (EDC) and N-hydroxysuccinimide (NHS) according to the supplier's instructions. The huMabJC18 IgG was diluted into 10 mM sodium acetate pH 4.0 and injected over the activated chip at a concentration of 30 μg/ml.
Using variable flow time across the individual chip channels, a range of antibody density was achieved: 200-800 response units (RU). The IgG and reference surfaces were then saturated with goat Fab2 anti-human Fc (Cappel 55053) to prevent nonspecific binding by Dkk-1 to the chip surface. The chip was then blocked with ethanolamine. Assays were performed at 25° C., with a BIAcore running buffer composed of HBS-EP (0.01M HEPES, pH 7.4, 0.15 NaCl, 3 mM EDTA, 0.005% Surfactant P20)+2 mg/ml BSA+2 mg/ml CM Dextran. A five membered, three fold dilution series starting at 30.9 nM purified human Dkk1 (R&D Systems) protein was injected for 1.5 min at 100 μL/min, and dissociation was monitored for […]. Kinetic association rates (kₒₙ) and dissociation rates (koff) were obtained simultaneously by fitting the data to a 1:1 Langmuir binding model (Karlsson, R. Roos, H. Fagerstam, L. Petersson, B. (1994). Methods Enzymology 6. 99-110) using the BIAevaluation program. Equilibrium dissociation constant (KD) values were calculated as koff/kₒₙ.

[5] = molecular target: T1, Recombinant human Dkk-1 (R&D Systems …); experiment: SPR (Table 4, headed 37C, BIAcore or ProteOn); 37 C per caption of Table 4
[6] = molecular target: T3, recombinant rat Dkk-1 (R&D systems Cat No. 4010-DK/CF) (rat); experiment: SPR BIAcore, huMabJC18 captured by goat Fab2 anti-human Fc, rat Dkk-1 injected
T3 construct: Bought
Method: (§1) For the interaction analyses of huMabJC18 with mouse or rat Dkk-1, low-levels of huMabJC18 (typically, 100-400 response units) were captured on individual flow cells by goat Fab2 anti-human Fc, which was pre-immobilized to the CM5 chip surface. A goat Fab2 anti-human Fc-saturated flow cell containing no humanized antibody served as reference channel. Mouse or rat Dkk-1 (R&D Systems) was titrated over the chip using 70.1 nM or 30.2 nM as top concentration, respectively, of a three-fold dilution series Association and dissociation phases were monitored at 100 μL/min for 90 seconds and 30 minutes, respectively. Capture surfaces for all experiments were regenerated with two 30 second pulses of […] H₃PO₄, except for the amine-coupled huMabJC18 surface used in the human Dkk-1 experiment, which was not regenerated.

[7] = molecular target: T2, recombinant mouse Dkk-1 (R&D systems …); experiment: SPR BIAcore, huMabJC18 captured by goat Fab2 anti-human Fc, mouse Dkk-1 injected
Method: as §1

[8] = molecular target: T4, recombinant human Dkk4 (R&D systems Cat No. 1269-DK/CF) (human, UniProt Q9UBT3 19-224); experiment: SPR BIAcore, huMabJC18 captured by goat Fab2 anti-human Fc, hDkk-4 titrated from 76.3 nM
T4 construct: Bought; also called hDkk-4
T4 sequence (looked up): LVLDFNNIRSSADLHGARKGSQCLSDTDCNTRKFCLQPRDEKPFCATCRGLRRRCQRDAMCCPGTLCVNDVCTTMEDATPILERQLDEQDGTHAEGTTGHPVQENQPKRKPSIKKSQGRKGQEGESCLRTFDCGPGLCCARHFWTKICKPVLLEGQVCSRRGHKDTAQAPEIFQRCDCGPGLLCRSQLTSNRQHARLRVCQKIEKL

IC50 in a Cell-based Functional Assay (U2OS TOPFlash luciferase; reversal of Dkk-1 inhibition of Wnt3a signaling) [1]: 1.3 nM
fold increase in affinity against the parent mouse antibody JC18 [2]: > 100 fold
fold increase in affinity against the parent mouse antibody JC18 [3]: > 100 fold
Kd [4]: < 0.002 nM
T1/2 [4]: > 96.3 h
koff [4]: < 2e-06 s⁻¹
kon [4]: > 1.3e+06 M⁻¹ s⁻¹
kon [5]: > 1.36e+06 M⁻¹ s⁻¹
Kd [6]: < 0.1 nM
T1/2 [6]: 0.92 h
koff [6]: 0.00021 s⁻¹
kon [6]: > 1.3e+06 M⁻¹ s⁻¹
Kd [7]: < 0.03 nM
T1/2 [7]: > 4.94 h
koff [7]: < 3.9e-05 s⁻¹
kon [7]: > 1.3e+06 M⁻¹ s⁻¹
Kd [8]: 11 nM
T1/2 [8]: 1.12 h
koff [8]: 0.000172 s⁻¹
kon [8]: 15000 M⁻¹ s⁻¹
B1: huMabJC18, fully humanized anti-Dkk-1 monoclonal antibody (antibody, human IgG2, kappa, V domains shown)
VH: EVQLVESGGGLVQPGGSLRLSCAASGFTFSSYAISWVRQAPGKGLEWVASVSGTGLGFQTYYPDSVKGRFTISRDNAKNSLYLQMNSLRAEDTAVYYCATSLENYAFDYWGQGTTVTVSS
VL: EIVLTQSPATLSLSPGERATLSCRASESVDDFGISFINWYQQKPGQAPRLLIYAGSKQGSGIPARFSGSGSGTDFTLTISSLEPEDFAVYYCQQLKEVPPTFGGGTKVEIKR
notes: IgG2(delta a: A329S, P330S), kappa; also called huMabJC18 IgG
